Data reported in patent publication EP4631972A1, “SITE-SPECIFIC COUPLED PEGYLATED INTERLEUKIN-2 MUTANT WITH RECEPTOR AFFINITY PREFERENCE AND USE THEREOF” (priority 2022, dated 2024).

B1: 20K-1PEG-IL2-N88R-N77C: IL-2 mutant N88R, N77C, conjugation site 77, PEG molecular weight 20kD (conjugate)
chain: APTSSSTKKTQLQLEHLLLDLQMILNGINNYKNPKLTRMLTFKFYMPKKATELKHLQCLEEELKPLEEVLNLAQSKC(PEG 20 kDa)FHLRPRDLISRINVIVLELKGSETTFMCEYADETATIVEFLNRWITFSQSIISTLT

Assays:
[1] = Effects on body weight and physiological characteristics of mice; conditions: 1 mg/kg s.c. once every three days, three times
Method: SPF grade Balb/c mice were purchased, with 3 mice in each group. Administration was started on the day of grouping. The test substance or PBS (negative control group) was administered subcutaneously at a dose of 1 mg/kg, once every three days, for a total of three times. The mice were weighed before each administration and three days after the third administration .

[2] = Pharmacokinetic study in mice, single administration, plasma concentration by ELISA; conditions: 1 mg/kg s.c. single administration
Method: Balb/c mice were purchased, with 4 mice in each group. Each IL-2 mutant to be tested was administered subcutaneously once at a dose of 1 mg/kg. Blood was collected from the orbit at different time points after administration, and the plasma was separated and the plasma drug concentration was detected by ELISA. The main pharmacokinetic parameters were calculated, and C-T curve was plotted.

Treg cells = test: P-STAT5 activation in Treg cells of human PBMCs (flow cytometry); type: cell-based; conditions: P-STAT5 MFI in CD3+/CD4+/CD25+ cells of human PBMCs, 30 min stimulation
Method: In the example, the activation effect of each mutant prepared in Example 6 on P-STAT5 in different cell subsets (Tregs, CD8+T cells, NK cells) from human PBMCs (Miaoshun Biotechnology) was detected.
Human PBMC cells were thawed and resuspended to 1.5×10^6 cells/ml in RPMI1640 medium containing 10% FBS. 100 µl was added to each well of a V-bottom 96-well culture plate. Each IL-2 mutant prepared in Example 6 was diluted 10-fold in series: 1000 nM was used as the working concentration for the first well, and then 100 µl/well of each serial dilution was added to each cultured cell, stimulated at 37°C for 30 min, and the reaction was terminated on ice. The cells were treated with a commercial fixative and permeabilization agent (BD biosciences 558049 & 558050), and stained with antibodies against CD3, CD4, CD25, and CD8 according to conventional methods. P-STAT5 antibody staining was also performed (Table 7) to detect the mean fluorescence intensity (MFI) of P-STAT5 in CD3+/CD4+/CD25+ (Treg cells) and CD8+/CD3+ cells ([…]) by flow cytometry.

IL-2Rαβγ triple receptor = target: T1, IL-2Rαβγ triple receptor (UniProt P01589 22-272; P14784 27-551; P31785 23-369); test: cell-based or functional assay
T1 sequence (looked up) 1: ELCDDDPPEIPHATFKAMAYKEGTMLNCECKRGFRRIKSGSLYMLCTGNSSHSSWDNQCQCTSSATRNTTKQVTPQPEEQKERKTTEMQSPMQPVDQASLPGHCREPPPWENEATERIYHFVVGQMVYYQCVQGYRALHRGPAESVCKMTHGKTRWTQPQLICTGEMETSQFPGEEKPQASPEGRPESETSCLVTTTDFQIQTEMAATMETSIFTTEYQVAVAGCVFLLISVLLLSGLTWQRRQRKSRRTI
T1 sequence (looked up) 2: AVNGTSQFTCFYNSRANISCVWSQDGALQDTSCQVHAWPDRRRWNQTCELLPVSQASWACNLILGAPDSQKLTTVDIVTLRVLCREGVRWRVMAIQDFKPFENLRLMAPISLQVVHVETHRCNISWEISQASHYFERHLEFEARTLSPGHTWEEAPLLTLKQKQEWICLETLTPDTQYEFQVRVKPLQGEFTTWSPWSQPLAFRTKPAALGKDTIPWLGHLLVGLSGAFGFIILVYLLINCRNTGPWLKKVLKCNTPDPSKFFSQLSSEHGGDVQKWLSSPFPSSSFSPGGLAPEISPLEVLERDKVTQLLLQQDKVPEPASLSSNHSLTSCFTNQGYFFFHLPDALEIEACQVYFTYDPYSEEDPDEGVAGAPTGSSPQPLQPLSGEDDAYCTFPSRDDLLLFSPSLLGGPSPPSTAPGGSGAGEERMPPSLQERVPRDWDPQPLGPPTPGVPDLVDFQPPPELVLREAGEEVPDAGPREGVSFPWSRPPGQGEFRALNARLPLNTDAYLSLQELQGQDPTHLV
T1 sequence (looked up) 3: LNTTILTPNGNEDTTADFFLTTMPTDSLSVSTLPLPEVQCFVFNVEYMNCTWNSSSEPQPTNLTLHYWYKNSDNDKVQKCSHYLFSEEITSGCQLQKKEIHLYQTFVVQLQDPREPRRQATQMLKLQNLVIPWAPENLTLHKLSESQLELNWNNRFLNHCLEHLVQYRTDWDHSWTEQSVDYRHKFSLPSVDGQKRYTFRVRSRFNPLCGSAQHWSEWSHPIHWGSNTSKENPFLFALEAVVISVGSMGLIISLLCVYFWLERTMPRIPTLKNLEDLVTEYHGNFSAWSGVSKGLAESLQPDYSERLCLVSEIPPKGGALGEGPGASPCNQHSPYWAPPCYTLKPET

IL-2αβγ triple receptor = target: T2, IL-2αβγ triple receptor (Homo sapiens, UniProt P01589+P14784+P31785); test: STAT5 reporter gene assay, activation of IL-2αβγ triple receptor in 293EC18/αβγ/JAK3/STAT5 cells; type: cell-based; conditions: Example 3, Table 2 and Figure 3
T2 construct: Uniprot P01589 1Met-551Ile constructed into plasmid pcDNA3.1/zeo; Uniprot P14784 1Met-551Val constructed into plasmid pcDNA3.1(+); Uniprot P31785 1Met-551Thr was constructed into plasmid pcDNA3.1/zeo; expressed in transfected cells; host or cells: 293EC18 cells, transient co-transfection with pCMV/JAK3 and PGL4.52/STAT5RE
T2 sequence (P01589 22-272): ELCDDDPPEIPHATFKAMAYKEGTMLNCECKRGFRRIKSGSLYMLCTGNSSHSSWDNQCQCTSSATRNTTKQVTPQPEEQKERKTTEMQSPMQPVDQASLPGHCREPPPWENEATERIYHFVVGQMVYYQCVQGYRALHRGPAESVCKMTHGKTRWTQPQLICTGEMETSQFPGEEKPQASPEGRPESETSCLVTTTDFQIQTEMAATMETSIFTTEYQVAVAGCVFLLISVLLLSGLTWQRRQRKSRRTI
T2 sequence (P14784 27-551): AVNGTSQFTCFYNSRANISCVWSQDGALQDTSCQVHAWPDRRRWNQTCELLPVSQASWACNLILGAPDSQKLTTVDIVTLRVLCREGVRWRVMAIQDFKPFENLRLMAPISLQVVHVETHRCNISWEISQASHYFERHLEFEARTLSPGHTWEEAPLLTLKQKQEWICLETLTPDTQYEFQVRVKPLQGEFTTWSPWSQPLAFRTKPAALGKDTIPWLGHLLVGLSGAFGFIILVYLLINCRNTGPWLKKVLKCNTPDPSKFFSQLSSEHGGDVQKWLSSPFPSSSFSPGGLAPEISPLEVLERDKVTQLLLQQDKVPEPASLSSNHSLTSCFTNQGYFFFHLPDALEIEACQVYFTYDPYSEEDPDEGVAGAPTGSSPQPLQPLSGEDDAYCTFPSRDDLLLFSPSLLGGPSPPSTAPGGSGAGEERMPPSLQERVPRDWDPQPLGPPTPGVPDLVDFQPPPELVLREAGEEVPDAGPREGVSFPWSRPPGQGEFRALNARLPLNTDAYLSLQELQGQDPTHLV
T2 sequence (P31785 23-369): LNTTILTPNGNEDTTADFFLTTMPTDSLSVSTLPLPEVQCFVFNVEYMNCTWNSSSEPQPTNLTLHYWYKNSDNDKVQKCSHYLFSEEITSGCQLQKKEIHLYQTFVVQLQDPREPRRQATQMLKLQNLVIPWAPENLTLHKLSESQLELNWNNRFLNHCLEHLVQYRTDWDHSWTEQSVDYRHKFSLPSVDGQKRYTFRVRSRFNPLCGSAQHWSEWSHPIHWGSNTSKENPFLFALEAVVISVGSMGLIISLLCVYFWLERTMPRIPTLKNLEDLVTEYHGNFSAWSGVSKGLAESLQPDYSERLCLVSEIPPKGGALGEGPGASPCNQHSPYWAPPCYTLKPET
Method: Since the binding of IL-2 to the β and γ subunits of its receptor induces STAT5 phosphorylation, which subsequently leads to dimerization and translocation into the nucleus to promote target gene transcription, this example evaluates the ability of the mutant IL-2 polypeptides to induce signaling through the IL-2 receptor by measuring STAT5 phosphorylation.
Adherent 293EC18 cells were cultured to about 90% confluence using conventional methods. After trypsin digestion, the cells were resuspended in cell culture medium to 4×10^5 cells/ml and 50 µl/well were added to two 96-well cell culture plates. After incubation at 37°C for 48 h, the supernatant was aspirated and fresh culture medium was added. […]
Each IL2 mutant was diluted 4-fold in a gradient manner using PBS buffer, with a total of 11 dilutions and a starting concentration of 65.2 nM. […] Bio-Lite Luciferase Assay System reagents that have been mixed and equilibrated to room temperature were added to the cell culture plates to be tested at 100 µl/well, placed on a microplate shaker at 450 rpm to mix for 2 minutes, then allowed to stand at room temperature for 3 minutes, and the chemiluminescence value was detected with an enzyme plate reader.
The logarithm of the final concentration of each IL-2 mutant sample was used as the X-axis, and the chemiluminescence detection results were used as the Y-axis for plotting. Data were analyzed using the four-parameter logistic regression model in GraphPad Prism 9. Table 2 EC50 values for the activation of the IL-2αβγ triple receptor by PEG-IL-2 mutants as determined by a reporter gene assay.
According to the method of Example 3, each polyethylene glycol-modified mutant obtained in this example was assessed for the binding preference to the IL2 receptors by a reporter assay. Table 4 EC50 values for the activation of the IL-2αβγ triple receptor by PEG-IL-2 mutants as determined by a reporter gene assay. […]

Molecule | AUC inf [2] | AUClast [2] | CL [2] | Cmax [2] | MRT [2] | T1/2 [2] | Tmax [2] | EC50 (Treg cells) | further results
80K-1PEG-IL2-N88R-D109C: IL-2 mutant N88R, D109C, conjugation site 109, PEG molecular weight 80kD |  |  |  |  |  |  |  |  | toxic side effects on mice [1]: relatively obvious toxic side effects; visual observation of the mice [1]: listless, had poor motility; body weight compared with negative control ([1]; three days after the third dose): significantly lower than that of the negative control
40K-1PEG-IL2-N88R-N77C: IL2-N88R-N77C with 40 kDa PEG conjugated to the cysteine at position 77 | 307.71336 ± 53.89144 µg·h/mL | 306.70767 ± 53.98797 µg·h/mL | 3.32±0.5 | 6581.76 ± 1168.04 ng/mL | 31.57 ± 1.16 h | 11.33 ± 0.97 h | 8 to 24 h | 38000 pM | 
rh IL-2 (from UniProt P60568 21-153) (ligand) |  |  |  |  |  |  |  |  | Activation of IL-2αβγ receptor EC50 (STAT5 luciferase reporter gene assay) (IL-2Rαβγ triple receptor): 8.48 pM; Activation of IL-2αβγ triple receptor EC50 (STAT5 luciferase reporter gene assay) (IL-2Rαβγ triple receptor): 4.11 pM; EC50 for activation of the IL-2αβγ triple receptor (STAT5 luciferase reporter gene assay) (IL-2Rαβγ triple receptor): 5.43 pM
80k-1PEG-IL2-D84C: IL-2 (C125S) mutant D84C with one 80k PEG-maleimide conjugated to cysteine 84 |  |  |  |  |  |  |  |  | activation of the IL-2Rαβγ triple receptor compared with the control IL2-N88R (IL-2αβγ triple receptor): even stronger activation
B1 | 22.88236 ± 3.52254 µg·h/mL | 21.76228 ± 3.58639 µg·h/mL | 44.4±6.99 | 1276.71 ± 273.3 ng/mL | 11.68 ± 0.08 h | 7.62 ± 0.57 h | 4 to 8 h | 6140 pM | 
